In the Human Domainome abundance scans (Beltran et al. 2025):
± gives the uncertainty stated by the source.

B1: PMS1 protein homolog 1, residues 572 to 637; numbered along this chain, P54277 (parent)
chain: KKPMSASALFVQDHRPQFLIENPKTSLEDATLQIEELWKTLSEEEKLKYEEKATKDLERYNSQMKR

Variants of: B1
Test: abundance fitness (aPCA) (normalised: wild type 0, dead -1); higher = more abundant; growth selection in yeast, the domain comes from the species named
Details: Homo sapiens

Abundance fitness: each site, then its substitutions
D13: C -0.66 ± 0.28; N -0.556 ± 0.25; G -0.844 ± 0.29
M4: E -0.002 ± 0.11; F -0.12 ± 0.18; H -0.044 ± 0.14; Y -0.091 ± 0.15; K 0.057 ± 0.14; P -0.064 ± 0.18; T -0.05 ± 0.096; R -0.106 ± 0.077; Q 0.043 ± 0.12; L -0.017 ± 0.096; N -0.157 ± 0.47; C -0.627 ± 0.18; W -0.485 ± 0.11; A -0.072 ± 0.072; V -0.091 ± 0.065
P3: T 0.049 ± 0.2; K -0.368 ± 0.34; W -0.545 ± 0.29; M -0.333 ± 0.4; I -0.305 ± 0.45; S -0.605 ± 0.34; N 0.031 ± 0.25; A -0.464 ± 0.19; C -0.358 ± 0.28
S7: A 0.007 ± 0.096; D 0.036 ± 0.25; L -0.087 ± 0.09; H -0.144 ± 0.16; T -0.122 ± 0.12; E 0.017 ± 0.1; Q 0.176 ± 0.12; N -0.055 ± 0.18; R 0.121 ± 0.076; G -0.134 ± 0.083; C -0.28 ± 0.22; F -0.108 ± 0.4; K 0.069 ± 0.2; W -0.388 ± 0.24; M 0.235 ± 0.25
V11: I -0.432 ± 0.23
K1: C 0.184 ± 0.43; R -0.216 ± 0.13; V -0.191 ± 0.28; M -0.057 ± 0.26; F -0.498 ± 0.26; G -0.225 ± 0.11; S -0.602 ± 0.2; E -0.022 ± 0.14; Y -0.174 ± 0.3
S5: I -0.336 ± 0.28; W -0.874 ± 0.2; D -0.341 ± 0.34; P 0.322 ± 0.3; L -0.283 ± 0.12; R -0.293 ± 0.1; M -0.411 ± 0.13; C -0.333 ± 0.44; K -0.179 ± 0.12; E -0.031 ± 0.13; A -0.252 ± 0.13; T 0.095 ± 0.077; G -0.032 ± 0.087
L27: T -0.101 ± 0.14; Q -0.532 ± 0.31; E -0.538 ± 0.41; V -0.132 ± 0.13; S -0.048 ± 0.14; P 0.057 ± 0.22; M -0.089 ± 0.17; Y -0.079 ± 0.16; F 0.224 ± 0.23; C -0.384 ± 0.19; A -0.127 ± 0.18; G -0.308 ± 0.12
H14: Y -0.063 ± 0.089
Q33: E -0.124 ± 0.095; D -0.24 ± 0.38; K -0.06 ± 0.2; P -0.579 ± 0.17; S -0.23 ± 0.16; T -0.454 ± 0.22; G -0.405 ± 0.12; W -0.696 ± 0.16; R -0.229 ± 0.18; A -0.05 ± 0.12; V -0.329 ± 0.17; M -0.283 ± 0.11
E21: D -0.446 ± 0.24
P16: I -0.224 ± 0.25; K -0.17 ± 0.14; R -0.08 ± 0.12; W -0.421 ± 0.17; T -0.159 ± 0.25; L -0.401 ± 0.12; M -0.447 ± 0.21; V -0.47 ± 0.12; A -0.06 ± 0.099; C -0.357 ± 0.11; Y -0.198 ± 0.18; G -0.244 ± 0.068; Q -0.041 ± 0.16; E -0.087 ± 0.11; S -0.214 ± 0.16; D 0.118 ± 0.15
L32: V -0.117 ± 0.18; K 0.002 ± 0.14; T -0.246 ± 0.28; G -0.261 ± 0.092; W -0.156 ± 0.088; E -0.144 ± 0.13; D -0.283 ± 0.18; M 0.043 ± 0.2; S -0.18 ± 0.13; R 0.019 ± 0.062; Q -0.15 ± 0.18; I -0.172 ± 0.15; P -0.349 ± 0.13
T40: L -0.114 ± 0.073; P -0.537 ± 0.14; N -0.086 ± 0.12; Q -0.094 ± 0.095; E -0.028 ± 0.18; M -0.165 ± 0.15; K -0.099 ± 0.12; R -0.125 ± 0.071; V -0.239 ± 0.1; H -0.087 ± 0.1; W -0.253 ± 0.12; C 0.115 ± 0.21; I -0.165 ± 0.1; G -0.041 ± 0.075; S -0.128 ± 0.092; F -0.041 ± 0.13; A -0.294 ± 0.12; D -0.101 ± 0.11; Y -0.387 ± 0.18
Q12: A 0.258 ± 0.27; T -0.54 ± 0.26
T25: A 0.042 ± 0.081; P -0.627 ± 0.14; H -0.395 ± 0.33; R -0.317 ± 0.095; V 0.116 ± 0.12; M -0.156 ± 0.17; Q -0.143 ± 0.12; N -0.192 ± 0.12; F 0.201 ± 0.29; C -0.159 ± 0.16; W -0.531 ± 0.091; G -0.387 ± 0.094; K -0.302 ± 0.15; L -0.096 ± 0.092
S26: T -0.061 ± 0.042; F -0.775 ± 0.08; N -0.167 ± 0.068; Y -0.861 ± 0.061; R -0.282 ± 0.062; M -0.482 ± 0.067; G -0.223 ± 0.098; H -0.349 ± 0.06; I -0.605 ± 0.053; L -0.538 ± 0.053; C -0.111 ± 0.069; K -0.155 ± 0.067; P -0.21 ± 0.06; D -0.102 ± 0.11; Q -0.327 ± 0.1; E -0.317 ± 0.12; W -1.3 ± 0.11; A -0.229 ± 0.063; V -0.654 ± 0.073
A30: V -0.29 ± 0.17; E -0.414 ± 0.21; T -0.668 ± 0.25; H -0.34 ± 0.32; L -0.634 ± 0.38; R -0.666 ± 0.15; G -0.401 ± 0.14; W -0.632 ± 0.16; Q -0.439 ± 0.41
D29: N -0.119 ± 0.13
A8: L -0.288 ± 0.41; V -0.457 ± 0.15; W -0.347 ± 0.19; D -0.162 ± 0.45; E 0.147 ± 0.31; G -0.223 ± 0.13; R -0.119 ± 0.093
R15: H -0.227 ± 0.15; F 0.035 ± 0.43; P -0.541 ± 0.14; V 0.033 ± 0.086; M 0.07 ± 0.075; E -0.409 ± 0.14; T -0.111 ± 0.27; A -0.039 ± 0.13; N -0.769 ± 0.23; W -0.408 ± 0.12; D -0.729 ± 0.11; Q -0.336 ± 0.12; K -0.38 ± 0.23; G -0.559 ± 0.075; S -0.41 ± 0.16; L 0.003 ± 0.084
K2: P -0.201 ± 0.23; I -0.475 ± 0.42; E -0.433 ± 0.11; R -0.332 ± 0.11; Q -0.545 ± 0.15; F -0.242 ± 0.41; H 0.115 ± 0.46; G -0.696 ± 0.25; C -0.095 ± 0.16; S -0.201 ± 0.098; M -0.321 ± 0.16; L -0.08 ± 0.39
T31: Q -0.359 ± 0.28; D -0.11 ± 0.48; F -0.325 ± 0.44; P -0.599 ± 0.34; G -0.321 ± 0.14; M -0.516 ± 0.18; E -0.142 ± 0.25; R -0.089 ± 0.13; L -0.433 ± 0.1; S -0.335 ± 0.26
W38: V -0.504 ± 0.15; H 0.034 ± 0.26; L -1.01 ± 0.14; G -0.304 ± 0.19; R -0.292 ± 0.13; A -0.369 ± 0.22; F -0.299 ± 0.17; E -0.135 ± 0.13; D 0.097 ± 0.46; T -0.343 ± 0.19
L37: E -0.359 ± 0.2; V -0.127 ± 0.12; Y -0.459 ± 0.35; G -0.175 ± 0.082; T -0.123 ± 0.27; K 0.116 ± 0.13; S -0.083 ± 0.11; R -0.091 ± 0.15; H -0.01 ± 0.28; W -0.386 ± 0.094; A -0.052 ± 0.14; C -0.278 ± 0.42; M -0.319 ± 0.26; P -0.995 ± 0.4; I -0.357 ± 0.15
F10: V -0.812 ± 0.12; W -0.267 ± 0.15; R -0.651 ± 0.074; P -0.686 ± 0.22; L -0.731 ± 0.12; H -0.183 ± 0.39; G -0.791 ± 0.1; A -0.608 ± 0.12; M -0.433 ± 0.26; E -0.483 ± 0.12; Q -0.466 ± 0.13; K -0.368 ± 0.11; D -0.487 ± 0.2; S -0.422 ± 0.13; N -0.655 ± 0.16
K39: V -0.465 ± 0.23; Q 0.017 ± 0.26; D -0.308 ± 0.26; R -0.285 ± 0.099; W -0.507 ± 0.21; S -0.081 ± 0.25; C -0.156 ± 0.17; P -0.252 ± 0.18; L -0.22 ± 0.18; H -0.205 ± 0.32; A -0.062 ± 0.1; E -0.095 ± 0.11; Y -0.104 ± 0.39; G -0.875 ± 0.12; I -0.535 ± 0.46
L41: F -0.733 ± 0.1; C -0.196 ± 0.13; I -0.202 ± 0.17; G -0.315 ± 0.066; H -0.467 ± 0.14; E -0.295 ± 0.11; D -0.319 ± 0.094
A6: E -0.607 ± 0.09; D -0.665 ± 0.25; Y -0.925 ± 0.45; Q -0.493 ± 0.18; T -0.646 ± 0.12; M -0.704 ± 0.15; K -0.348 ± 0.17; W -1.87 ± 0.29; G -0.306 ± 0.083; C -0.281 ± 0.29; I -1.17 ± 0.23; S -0.195 ± 0.22; P -0.38 ± 0.21; R -0.637 ± 0.072
E35: S -0.189 ± 0.1; H -0.171 ± 0.12; K -0.26 ± 0.28; Q -0.414 ± 0.47; I -0.33 ± 0.33; W -0.774 ± 0.16; D -0.86 ± 0.4; A -0.2 ± 0.13; P -0.14 ± 0.31; T -0.207 ± 0.15; C -0.274 ± 0.098; V -0.548 ± 0.12; M -0.038 ± 0.14; F -0.251 ± 0.31; N -0.389 ± 0.26; R -0.142 ± 0.081
L9: V -0.2 ± 0.17; N -0.467 ± 0.27; F -0.131 ± 0.14; A -0.61 ± 0.23; T -0.287 ± 0.15; K -0.044 ± 0.19; G -0.308 ± 0.11; P -0.98 ± 0.25; R -0.017 ± 0.076; Q 0.032 ± 0.16; Y -0.155 ± 0.17; S -0.254 ± 0.12; M -0.167 ± 0.47
